# B1: Effector protein HopAB2 (Pseudomonas syringae pv. tomato (strain DC3000)), Q8RSY1 (parent)
# chain: MAGINRAGPSGAYFVGHTDPEPVSGQAHGSGSGASSSNSPQVQPRPSNTPPSNAPAPPPTGRERLSRSTALSRQTREWLEQGMPTAEDASVRRRPQVTADAATPRAEARRTPEATADASAPRRGAVAHANSIVQQLVSEGADISHTRNMLRNAMNGDAVAFSRVEQNIFRQHFPNMPMHGISRDSELAIELRGALRRAVHQQAASAPVRSPTPTPASPAASSSGSSQRSLFGRFARLMAPNQGRSSNTAASQTPVDRSPPRVNQRPIRVDRAAMRNRGNDEADAALRGLVQQGVNLEHLRTALERHVMQRLPIPLDIGSALQNVGINPSIDLGESLVQHPLLNLNVALNRMLGLRPSAERAPRPAVPVAPATASRRPDGTRATRLRVMPEREDYENNVAYGVRLLNLNPGVGVRQAVAAFVTDRAERPAVVANIRAALDPIASQFSQLRTISKADAESEELGFKDAADHHTDDVTHCLFGGELSLSNPDQQVIGLAGNPTDTSQPYSQEGNKDLAFMDMKKLAQFLAGKPEHPMTRETLNAENIAKYAFRIVP
# Variants of: B1
# Settings: with rs27a_sollc UBI3, P62980
row,Variant,effect of a mutation on the interaction
1,K512R;K529R,decreasing interaction strength

# Reference: IntAct's records for PubMed 16477026
